The values below come from US7892767B2, “Phosphospecific chemokine receptor antibodies” (Washington University in St. Louis, priority 2005, dated 2011).

The test deals with T1, CXCR4 (Homo sapiens, UniProt P61073).
T1 construct: lysates from the glioblastoma cell line LN428, which is known to express high levels of CXCR4; endogenous in cells; host or cells: LN428 GBM cell line
In words: Stimulated CXCR4 phosphorylation in LN428 GBM cells (western blot). The test is classed as cell-based. As to the method:
Cell Culture, transfections and stimulation of CXCR4 phosphorylation. The U87 glioblastoma multiforme (GBM, grade IV) cell line was obtained from the American Type Culture Collection. The LN428 GBM cell line was a kind gift of Dr Erwin van Meir (Winship Cancer Center, Emory University, Atlanta, Ga.). U87 cells were grown in minimum essential a media supplemented with 10% fetal bovine serum ((FBS), Biomedia, Foster City, Calif.). LN428 cells were grown in DMEM (Fisher, Pittsburgh, Pa.) supplemented with 10% horse serum (Sigma). All cells were grown in the presence of penicillin-streptomycin. The coding sequence for human CXCR4 was obtained by high fidelity RT-PCR (Superscript III Platinum, Invitrogen), and cloned into the expression vector pMSCVneo (Clontech, Palo Alto, Calif.). Transfections were performed with 0.3 μg of plasmid DNA in 20 μl Lipofectamine (Invitrogen)/35 mm^2 tissue culture dish for 9 hours according to the manufacturer's instructions. Cells recovered in Optimem supplemented with 10% FBS. Transfected and non-transfected cells were placed in serum free media for 24 hours prior to treatment with agents to stimulate CXCR4 phosphorylation. Treatment was usually for 0 or 10 minutes with 1 μg/ml CXCL12 (Peprotech, Rocky Hill N.J.), 4 μM 4-Phorbol 12-myristate 13-acetate (PMA) or 10 nM EGF. In some experiments, CXCL12 was washed away and cells were incubated for an additional 20 minutes in serum free media alone.
Western Blot Analysis. […] Peroxide activity was detected using the enhanced chemiluminescence Supersignal West Dura system (Pierce, Rockford, Ill.). […]
The utility of these antibodies for evaluating the relationship between ligand binding and CXCR4 function is dependent upon their ability to distinguish a ligand activated form of the receptor. […] Serum starved LN428 cells were treated with 1 μg/ml CXCL12 for 0 or 10 minutes and the abundance of phospho-CXCR4 was determined by western blot and immuno-localization in fixed cells. […]

Where [1] appears, read: 1 μg/ml CXCL12, 4 μM PMA or 10 nM EGF.

T1 sequence (P61073 whole entry): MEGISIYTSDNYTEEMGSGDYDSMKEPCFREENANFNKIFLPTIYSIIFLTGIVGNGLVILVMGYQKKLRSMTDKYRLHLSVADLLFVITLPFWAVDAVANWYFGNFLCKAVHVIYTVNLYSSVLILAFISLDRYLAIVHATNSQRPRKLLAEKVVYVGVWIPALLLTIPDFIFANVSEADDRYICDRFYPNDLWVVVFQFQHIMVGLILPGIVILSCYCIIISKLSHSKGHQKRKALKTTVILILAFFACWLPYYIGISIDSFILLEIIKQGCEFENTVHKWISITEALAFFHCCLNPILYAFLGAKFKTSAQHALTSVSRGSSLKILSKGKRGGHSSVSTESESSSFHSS

B1: EGF: growth factor, ligand of the EGF receptor (protein, UniProt P01133 23-1207, looked up)
Pro-epidermal growth factor: PQHWSCPEGTLAGNGNSTCVGPAPFLIFSHGNSIFRIDTEGTNYEQLVVDAGVSVIMDFHYNEKRIYWVDLERQLLQRVFLNGSRQERVCNIEKNVSGMAINWINEEVIWSNQQEGIITVTDMKGNNSHILLSALKYPANVAVDPVERFIFWSSEVAGSLYRADLDGVGVKALLETSEKITAVSLDVLDKRLFWIQYNREGSNSLICSCDYDGGSVHISKHPTQHNLFAMSLFGDRIFYSTWKMKTIWIANKHTGKDMVRINLHSSFVPLGELKVVHPLAQPKAEDDTWEPEQKLCKLRKGNCSSTVCGQDLQSHLCMCAEGYALSRDRKYCEDVNECAFWNHGCTLGCKNTPGSYYCTCPVGFVLLPDGKRCHQLVSCPRNVSECSHDCVLTSEGPLCFCPEGSVLERDGKTCSGCSSPDNGGCSQLCVPLSPVSWECDCFPGYDLQLDEKSCAASGPQPFLLFANSQDIRHMHFDGTDYGTLLSQQMGMVYALDHDPVENKIYFAHTALKWIERANMDGSQRERLIEEGVDVPEGLAVDWIGRRFYWTDRGKSLIGRSDLNGKRSKIITKENISQPRGIAVHPMAKRLFWTDTGINPRIESSSLQGLGRLVIASSDLIWPSGITIDFLTDKLYWCDAKQSVIEMANLDGSKRRRLTQNDVGHPFAVAVFEDYVWFSDWAMPSVMRVNKRTGKDRVRLQGSMLKPSSLVVVHPLAKPGADPCLYQNGGCEHICKKRLGTAWCSCREGFMKASDGKTCLALDGHQLLAGGEVDLKNQVTPLDILSKTRVSEDNITESQHMLVAEIMVSDQDDCAPVGCSMYARCISEGEDATCQCLKGFAGDGKLCSDIDECEMGVPVCPPASSKCINTEGGYVCRCSEGYQGDGIHCLDIDECQLGEHSCGENASCTNTEGGYTCMCAGRLSEPGLICPDSTPPPHLREDDHHYSVRNSDSECPLSHDGYCLHDGVCMYIEALDKYACNCVVGYIGERCQYRDLKWWELRHAGHGQQQKVIVVAVCVVVLVMLLLLSLWGAHYYRTQKLLSKNPKNPYEESSRDVRSRRPADTEDGMSSCPQPWFVVIKEHQDLKNGGQPVAGEDGQAADGSMQPTSWRQEPQLCGMGTEQGCWIPVSSDKGSCPQVMERSFHMPSYGTQTLEGGVEKPHSLLSANPLWQQRALDPPHQMELTQ
modifications: Pro-epidermal growth factor
notes: growth factor, ligand of the EGF receptor
B1: under setting [1], the P338 phosphorylation stimulated result was “not” and the P339 phosphorylation result is listed as “stimulated”. For the same molecule, for the setting “4 μM PMA or 10 nM EGF”, the “P339-CXCR4 immunoreactivity compared with response to CXCL12” value is given as “greater”.
